According to US5149780A, “Peptides and antibodies that inhibit integrin-ligand binding” (The Scripps Research Institute, priority 1988, dated 1992):

Columns and labels:
beta subunit (GPIIIa) = biological target: T1, beta subunit (GPIIIa) (Homo sapiens, UniProt P05106+P08514); assay: Chemical crosslinking of 125I-Fn-7 to platelets with BS3, SDS-PAGE and autoradiography; format: binding; settings: thrombin-stimulated platelets, 20 μM peptide, 45 min at 22° C., BS3 0.2 mM
T1 construct: endogenous in cells; host or cells: human platelets (thrombin-stimulated or nonstimulated), gel-filtered from fresh blood
Procedure: FIG. 2 illustrates the results of the crosslinking of an RGD peptide to discrete sites in the beta subunit (GPIIIa) of an Integrin adhesion receptor. The ^125 I-labeled RGD peptide, Fn-7 (20 μM), was bound to platelet (6×10^8 /ml) for 45 min at 22° C., and crosslinked with BS^3 (0.2 mM). The fragmentation patterns after proteolysis were analyzed by SDS-PAGE [Laemmli, Nature. 227:680 (1970)] and autoradiography. […] Lanes 2-7, GPIIIa:Fn-7 bands were excised from gels, subjected to proteolysis and then analyzed by SDS-PAGE (15% gels, reducing conditions). For lanes 2-5, GPIIIA:Fn-7 bands were excised and digestions with V-8 protease were performed within the gel slices as described in Cleveland et al., J. Biol. Chem. 252:1102 (1977).
Platelets were isolated from fresh human blood collected into acid/citrate/dextrose by differential centrifugation followed by gel filtration on Sepharose 2B in divalent ion-free Tyrode's buffer, pH 7.3, containing 0.1% bovine serum albumin. See, Marguerie et al., J. Biol. Chem. 225:154-161 (1980). […]
The cell-bound ligand was recovered by centrifugation through 20% sucrose, and the cells were extracted in PBS containing 1% Nonidet P40 and 10 mM N-ethylmaleimide (Sigma). […] The cross-linked samples were analyzed by electrophoresis (SDS-PAGE) on polyacrylamide vertical slab gels in the buffer system of Laemmli, Nature, […] (1970). […]

alpha subunit (GPIIb) = biological target: T2, alpha subunit (GPIIb) (Homo sapiens, UniProt P05106+P08514); assay: as above; format: binding; settings: thrombin-stimulated platelets, 20 μM peptide, 45 min at 22° C., BS3 0.2 mM
T2 construct: The radiolabeled peptide was then added to 6×10^8 cells/ml stimulated or nonstimulated platelets; endogenous in cells; host or cells: human platelets (thrombin-stimulated), gel-filtered from fresh blood

crosslinking of 125I-Fn-7 to the beta subunit (GPIIIa) (beta subunit (GPIIIa)): predominance
crosslinking of 125I-Fn-7 to the alpha subunit (GPIIb) (alpha subunit (GPIIb)): more minor crosslinking
Sequence: KYGRRGDS [Fn-7, RGD-peptide with a lysine to facilitate crosslinking and a tyrosine for radioiodination]
